These results are taken from PMC7181051, “Probing the Protein-Protein Interaction between the ATRXADD Domain and the Histone H3 Tail” (Molecules, 2020).

Where no end group is shown, it is not given here. [ ]: non-standard residue; d: D form. Lys(Me3) = C[N+](C)(C)CCCC[C@H](N)C(=O)O

First the molecules themselves.
T1: ADD domain of ATRX (ATRXADD) (UniProt P46100 159-296)
T1 construct: ATRX, N-terminal ADD (ATRX-DNMT3-DNMT3L) domain; plasmid pGEX-GP-2-ATRX ADD from Addgene; that it comes from the GST fusion and not from the His-tagged one is surmised; also called ATRX-DNMT3-DNMT3L domain; source: E. coli BL21, purified (spin column, on-column thrombin cleavage)
T1 sequence (looked up): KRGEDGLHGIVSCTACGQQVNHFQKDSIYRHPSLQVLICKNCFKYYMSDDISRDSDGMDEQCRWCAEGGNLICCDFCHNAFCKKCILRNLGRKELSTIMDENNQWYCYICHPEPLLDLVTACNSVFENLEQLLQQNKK

B1: H3_(1-11)K9me3 peptide (peptide)
peptide: ARTKQTARKST
modifications: trimethyl-lysine at 9, printed K(me3)
notes: histone H3 tail; source: bought: GenScript
B2: H3_(1-11) A1L peptide (peptide)
peptide: LRTKQTAR[Lys(Me3)]ST
notes: histone H3 tail with A1 replaced; source: bought: GenScript
B3: H3_(1-11) A1V peptide (peptide)
peptide: VRTKQTAR[Lys(Me3)]ST
notes: as for B2
B4: H3_(1-11)K4me3K9me3 peptide (peptide)
peptide: ART[Lys(Me3)]QTAR[Lys(Me3)]ST
notes: as for B1
B5: H3_(1-10) peptide (peptide)
peptide: ARTKQTARKS
notes: as for B1
B6: H3_(1-16) peptide (peptide)
peptide: ARTKQTARKSTGGKAY
notes: as for B1

This assay deals with T1, ADD domain of ATRX (ATRXADD). The experiment in a line: fluorescence polarisation; competition: ATRXADD (5 μM) and H3_(1-15)K9me3-FAM (0.75 μM) incubated 15 minutes at room temperature, then unlabeled peptide at varying concentrations; PBS; 384-well plate. The settings on record: both partners purified. For orientation: Polarisation of emitted light reports the rotation of a fluorescent probe.
For B1, the IC50 came out at 7.6 ± 1.4 µM.

Take B2: the IC50 amounted to 5.05 ± 0.7 µM.

Molecule B3 displayed an IC50 of 4.3 ± 0.8 µM.

B4 showed a concentration for half-maximal inhibition (IC50) of at least 100 µM.

Take B5: the concentration for half-maximal inhibition (IC50) was 94.8 ± 4.6 µM.

Take B6: the IC50 stood at 85.8 ± 19.3 µM.

The term IC50 denotes the concentration that inhibits the measured activity by half.
